Where “and” joins values, the source holds several entries; their conditions need not be identical. Equal values may be shown once.

The subject of series [1] is E. coli (EPSPS gene-and-C-P lyase genes-deleted strain). Nature of the series: glyphosate resistance testing of Oryza sativa EPSPS mutant gene: growth of transformed E. coli on culture media containing glyphosate. Type of series: cell-based. Further details: key: saturation index=0, no growth; saturation index=1, minor growth; saturation index=2, growth to half-saturation; saturation index=3, vigorous growth, but still not saturated; saturation index=4, rapid growth, meaning the strains have reached the maximum (saturation) concentration or the growth has reached the limit. The conditions noted are these: E. coli transformed with the gene. The method, then: A plurality of the above obtained mutant strains were inoculated on a plurality of screening culture media with different concentrations of glyphosate, respectively (the screening culture media contained different concentrations of glyphosate, and the glyphosate concentrations contained in them were 10 mM, 20 mM, 50 mM, etc., respectively, having a gradient in glyphosate concentrations, and of course, the glyphosate concentration may be set as required), and cultured at 37° C. overnight. The screening culture media were obtained by using M9 as a basal medium, to which certain concentrations of antibiotics, including Specs (Spectinomycin), Gen (Gentamycin) and Amp (Ampicillin), and different concentrations of glyphosate were added. M9 culture medium consists of the following ingredients: 13˜14 g/L of Na2HPO4, 5.7˜6.3 g/L of KH2PO4, 0.9˜1.1 g/L of NaCl, 1.8˜2.2 g/L of NH4Cl, 37˜43 g/L of glucose, 48˜52 g/L of MgSO4.7H2O and 21˜23 g/L of CaCl2.
(§1) For glyphosate resistance testing of Oryza sativa EPSPS mutant gene, E. coli (EPSPS gene-and-C-P lyase genes-deleted strain) respectively transformed with OsEM gene (experimental group) and OsE gene (control group) were inoculated to culture media containing 0 mM, 1 mM, 5 mM, 10 mM, 20 mM, 50 mM and 100 mM glyphosate to see the growth of E. coli (indicated by growth saturation index: saturation index=0, no growth; saturation index=1, minor growth; saturation index=2, growth to half-saturation; saturation index=3, vigorous growth, but still not saturated; saturation index=4, rapid growth, meaning the strains have reached the maximum (saturation) concentration or the growth has reached the limit).

The test system is the same in series [2]. Nature of the series: glyphosate resistance testing of Glycine max EPSPS mutant gene: growth of transformed E. coli on culture media containing glyphosate. As to conditions: E. coli transformed with the gene. It counts as cell-based. Further details: key: saturation index=0, no growth; saturation index=1, minor growth; saturation index=2, growth to half-saturation; saturation index=3, vigorous growth, but still not saturated; saturation index=4, rapid growth, meaning the strains have reached the maximum (saturation) concentration or the growth has reached the limit. As for the experimental part:
as §1
For glyphosate resistance testing of Glycine max EPSPS mutant gene, E. coli (EPSPS gene-and-C-P lyase genes-deleted strain) respectively transformed with GmEM gene (experimental group) and GmE gene (control group) were inoculated to culture media containing 0 mM, 1 mM, 5 mM, 10 mM, 20 mM, 50 mM and 100 mM glyphosate to see the growth of E. coli.

[3] abbreviates: culture medium with 0 mM glyphosate.
Setting [4] is: culture medium with 1 mM glyphosate.
[5] abbreviates: culture medium with 5 mM glyphosate.
[6] abbreviates: culture medium with 10 mM glyphosate.
Where [7] appears, read: culture medium with 20 mM glyphosate.
Where [8] appears, read: culture medium with 50 mM glyphosate.
[9] abbreviates: culture medium with 100 mM glyphosate.

B1: OsE: wild type Oryza sativa EPSPS gene, SEQ ID NO.1; control group (nucleic acid, listed as Oryza sativa)
DNA: ATGGCGTCCAACGCCGCGGCTGCGGCGGCGAAGGCGGAGGAGATCGTGCTCCAGCCCATCAGGGAGATCTCCGGGGCGGTTCAGCTGCCAGGGTCCAAGTCGCTCTCCAACAGGATCCTCCTCCTCTCCGCCCTCTCCGAGGGCACAACAGTGGTGGACAACTTGCTGAACAGTGAGGATGTTCACTACATGCTTGAGGCCCTGAAAGCCCTCGGGCTCTCTGTGGAAGCAGATAAAGTTGCAAAAAGAGCTGTAGTCGTTGGCTGTGGTGGCAAGTTTCCTGTTGAGAAGGATGCGAAAGAGGAAGTGCAACTCTTCTTGGGGAACGCTGCGACTGCAATGCGACTCTTGACAGCAGCCGTGACTGCTGCTGGTGGAAATGCAACTTATGTGCTTGATGGAGTGCCACGAATGAGGGAGAGACCGATTGGTGACTTGGTTGTCGGGTTGAAACAACTTGGTGCGGATGTCGACTGTTTCCTTGGCACTGAATGCCCACCTGTTCGTGTCAAGGGAATTGGAGGACTTCCTGGTGGCAAGGTTAAGCTCTCTGGTTCCATCAGCAGTCAGTACTTGAGTGCCTTGCTGATGGCTGCTCCTTTGGCCCTTGGGGATGTGGAGATCGAAATCATTGACAAACTAATCTCCATTCCTTACGTTGAAATGACATTGAGATTGATGGAGCGTTTTGGTGTGAAGGCAGAGCATTCTGATAGTTGGGACAGATTCTATATTAAGGGAGGGCAGAAGTACAAATCTCCTGGAAATGCCTATGTTGAAGGTGATGCCTCAAGCGCGAGCTATTTCTTGGCTGGTGCTGCAATCACTGGAGGCACTGTGACAGTTCAAGGTTGTGGTACGACCAGTTTGCAGGGTGATGTCAAATTTGCTGAGGTACTTGAGATGATGGGAGCAAAGGTTACATGGACTGACACCAGTGTAACCGTAACTGGTCCACCACGTGAGCCTTATGGGAAGAAACACCTGAAAGCTGTTGATGTCAACATGAACAAAATGCCTGATGTTGCCATGACCCTTGCCGTTGTTGCACTCTTCGCTGATGGTCCAACTGCTATCAGAGATGTGGCTTCCTGGAGAGTAAAGGAAACCGAAAGGATGGTTGCAATTCGGACCGAGCTAACAAAGCTGGGAGCATCGGTTGAAGAAGGTCCTGACTACTGCATCATCACCCCACCGGAGAAGCTGAACATCACGGCAATCGACACCTACGATGATCACAGGATGGCCATGGCCTTCTCCCTCGCTGCCTGCGCCGACGTGCCCGTGACGATCAGGGACCCTGGTTGCACCCGCAAGACCTTCCCCAACTACTTCGACGTTCTAAGCACTTTCGTCAGGAACTGA
B1: the Growth saturation index in series [1] (setting [3]) amounted to 4; in series [1] (setting [4]) it was 0; in series [1] (setting [5]) it was 0; in series [1] (setting [6]), 0; in series [1] (setting [7]), 0; in series [1] (setting [8]), 0. The same molecule gave a Growth saturation index in series [1] (setting [9]) of 0.

B2: GmE: wild type Glycine max EPSPS gene, SEQ ID NO.5; control group (nucleic acid)
DNA: ATGGATAGCGTGGCGGCGGCGGAAAAACCGAGCACCAGCCCGGAAATTGTGCTGGAACCGATTAAAGATTTTAGCGGCACCATTACCCTGCCGGGCAGCAAAAGCCTGAGCAACCGCATTCTGCTGCTGGCGGCGCTGAGCGAAGGCACCACCGTGGTGGATAACCTGCTGTATAGCGAAGATATTCATTATATGCTGGGCGCGCTGCGCACCCTGGGCCTGCGCGTGGAAGATGATAAAACCACCAAACAGGCGATTGTGGAAGGCTGCGGCGGCCTGTTTCCGACCAGCAAAGAAAGCAAAGATGAAATTAACCTGTTTCTGGGCAACGCGGCGACCGCGATGCGCAGCCTGACCGCGGCGGTGGTGGCGGCGGGCGGCAACGCGAGCTATGTGCTGGATGGCGTGCCGCGCATGCGCGAACGCCCGATTGGCGATCTGGTGGCGGGCCTGAAACAGCTGGGCGCGGATGTGGATTGCTTTCTGGGCACCAACTGCCCGCCGGTGCGCGTGAACGGCAAAGGCGGCCTGCCGGGCGGCAAAGTGAAACTGAGCGGCAGCGTGAGCAGCCAGTATCTGACCGCGCTGCTGATGGCGGCGCCGCTGGCGCTGGGCGATGTGGAAATTGAAATTGTGGATAAACTGATTAGCGTGCCGTATGTGGAAATGACCCTGAAACTGATGGAACGCTTTGGCGTGAGCGTGGAACATAGCGGCAACTGGGATCGCTTTCTGGTGCATGGCGGCCAGAAATATAAAAGCCCGGGCAACGCGTTTGTGGAAGGCGATGCGAGCAGCGCGAGCTATCTGCTGGCGGGCGCGGCGATTACCGGCGGCACCATTACCGTGAACGGCTGCGGCACCAGCAGCCTGCAGGGCGATGTGAAATTTGCGGAAGTGCTGGAAAAAATGGGCGCGAAAGTGACCTGGAGCGAAAACAGCGTGACCGTGAGCGGCCCGCCGCGCGATTTTAGCGGCCGCAAAGTGCTGCGCGGCATTGATGTGAACATGAACAAAATGCCGGATGTGGCGATGACCCTGGCGGTGGTGGCGCTGTTTGCGAACGGCCCGACCGCGATTCGCGATGTGGCGAGCTGGCGCGTGAAAGAAACCGAACGCATGATTGCGATTTGCACCGAACTGCGCAAACTGGGCGCGACCGTGGAAGAAGGCCCGGATTATTGCGTGATTACCCCGCCGGAAAAACTGAACGTGACCGCGATTGATACCTATGATGATCATCGCATGGCGATGGCGTTTAGCCTGGCGGCGTGCGGCGATGTGCCGGTGACCATTAAAGATCCGGGCTGCACCCGCAAAACCTTTCCGGATTATTTTGAAGTGCTGGAACGCCTGACCAAACATTAA
modifications: Glycine max
notes: control group
As for B2, the Growth saturation index in series [2] (setting [3]) is 4; in series [2] (setting [4]), “cannot grow normally and 0”; in series [2] (setting [5]) it was “cannot grow normally and 0”; in series [2] (setting [6]), “cannot grow normally and 0”; in series [2] (setting [7]) it was “cannot grow normally and 0”; in series [2] (setting [8]), “cannot grow normally and 0”. The Growth saturation index in series [2] (setting [9]) came out at 0.
